# Assay results reported in publication PMC2963451.
# Biological target: Gag (GagΔp6) (HIV-1 BH10, UniProt P03347 1-447)
# Assay: fluorescence anisotropy
row,Binder,Kd
1,AGCUGCUUUUUGCCUGUACU (ssRNA) [JL943],8 nM
2,AGCTGCTTTTTGCCTGTACT (ssDNA) [JL936],9 nM
